# Assay results taken from patent US20220073643A1 (NANJING GENSCRIPT BIOTECH, published 2022).
# B1: 417A6F11 (antibody, V domains shown)
# VH: EVQLQQSGPELVKPGASMKISCKASGYSFTGYTMNWVKQSHGKNLEWIGLINPYNGGTSYNQKFKGKATLTVDKSSSTAYMELLSLTSEDSAVYYCARGDYWGQGTTLTVSS
# VL: DIVMTQSPSSLTVTAGEKVTMSCKSSQSLLNSGNQKNYLTWYQQKPGQPPKLLIYWASTRESGVPDRFTGSGSGTDFTLTISSVQAEDLAVYYCQNDYSYPTFGAGTKLELK
# B2: 410H6H3 (antibody, V domains shown)
# VH: DVLLVESGGGLVQPGGSRKLSCAASGFTFSSSGMHWVRQAPEKGLEWVAYISSGSNTIYYADTLKGRFTISRDNPKNTLFLQMTSLRSEDTAMYYCARIYYGNSFVYWGQGTLVTVSA
# VL: DIVMTQSPSSLTVTAGEKVIMSCKSSQSLLNSGNQKNYLTWYQQKPGQPPKMLIYWASTRESGVPDRFRGSGSGTDFTLTISSVQAEDLAVYYCQNNYYYPLTFGTGTKLALK
# B3: 413B1C9 (antibody, V domains shown)
# VH: DVQLVESGGGLVQPGGSRKLSCAASGFTFSSFGMHWVRQAPEKGLEWVAYISSGSSPIYYADTVKGRFTISRDNPKNTLFLQMTSLRSEDTAMYFCARFYYGNSFDHWGQGTLVTVSA
# VL: DIVMTQSPSSLTVTTGEKVSMSCKSSQSLFNRGNQKSYLTWYQQKPGQPPKLLIYWASTRESGVPDRFTGSGSGTDFTLTISSVQAEDLAVYYCQNNYIYPLTFGAGTKLELK
# B4: 414H6G2 (antibody, V domains shown)
# VH: DVQLVESGGGLVQPGGSRKLSCAASGFTFSGFGMHWIRQTAEKGLEWVAYISSGSRPIYYADTVQGRFTISRDNPKNTLFLQMTSLRSEDTAMYFCARFYYGNSFDHWGQGTLVTVSA
# VL: DIVMTQSPSFLTVTAGEKVTMSCKSSQSLLNSGNQKNYLTWYQQKPGQPPKLLIYWASTRESGVPDRFTGSGSGTDFTLTISSVQAEDLALYYCQNAYSFPLTFGAGTKLELK
# B5: 419B5G9 (antibody, V domains shown)
# VH: DVQLVESGGGLVQPGGSRKLSCAASGFTFSTFGMHWVRQAPEKGLEWVAYISGGSTTIFYADTVKGRFTISRDNPKNTLFLQMTSVRSEDTAMYYCARFYYGNSFAYWGPGTLVTVST
# VL: DIVMTQSPSSLTVTAGEKVTMSCKSSQSLLNSGNQKNYLTWYQQKPGQPPKMLIYWASTRESGVPDRFTGSGSGTDFTLTISSVQAEDLAVYYCQNAYSYPLTFGAGTKLELK
# B6: 411G12G1 (antibody, V domains shown)
# VH: DVQLVESGGGLVQPGGSRKLSCAASGFTFSGFGMHWIRQAPEKGLEWVAYISSGSRPIYYADTVKGRFTISRDNPKNTLFLQMTSLRSEDTAMYFCARFYYGNSFDHWGQGTLVTVSA
# VL: DIVMTQSPSFLTVTAGEKVTMSCKSSQSLLNSGNQKNYLTWYQQKPGQPPKLLIYWASTRESGVPDRFTGSGSGTDFTLTISSVQAEDLAVYYCQNDYSFPLTFGAGTKLELK
# B7: 418D2F9 (antibody, V domains shown)
# VH: DVQLVESGGGLVQPGGSRKLSCAASGFTFSSFGMHWVRQAPEKGLEWVAYINTGSSTIYYADTVKGRFTISRDNPKNTLFLQMTSLRSEDTAMYYCARIYYGNSFVYWGQGTLVTVSA
# VL: DIVMTQSPSSLTVTAGEKVTMSCKSSQSLLNSGNQKNYLTWYQQKPGQPPKLLIYWASTRESGVPDRFTGSGSGTDFTLTISSVQAEDLAVYYCQNDYSYPLTFGAGTKLELK
# B8: 203A6C9 (antibody, V domains shown)
# VH: QVQLKQSGPGLVQPSQSLSITCTVSGFSLTRYGVHWVRQSPGKGLEWLGVIWSGGNTDYNAAFISRLNIRKDNSKSQVFFKMNSLKPNDTAIYYCARAAYFGNSFDYWGQGTTLTVSS
# VL: DIVMTQSPSSLPVTAGEKVTMSCKSSQSLLNSGNQKNYLTWYQQKPGQPPKLLIYWASTRDSGVPDRFTGSGSGTDFTLTISSVQAEDLAVYYCQNNYIYPLTFGAGTKLELK
# B9: 418B8B10 (antibody, V domains shown)
# VH: DVQLVESGGGLVQPGGSRKLSCAASGFTFSSFGMHWVRQAPEKGLEWVAYISSGSSPIYYTDTVKGRFTISRDNPKNTLFLQMTSLRSEDTAMYFCARFYYGNSFDHWGQGTLVTVSA
# VL: DIVMTQSPSSLTVTAGEKVSMSCKSSQSLFNRGNQKSYLTWYQQRPGQPPKLLIYWASTRESGVPDRFTGSGSGTDFTLTISSVQAEDLAVYYCQNNYIYPLTFGAGTKLELK
# B10: 416F12F3 (antibody, V domains shown)
# VH: DVQLVESGGGLVQPGGSRKLSCAASGFTFSSFGMHWVRQAPEKGLEWVAYISSGSSTIYYAHSVKGRFTISRDNPKNTLFLQMTSLGSEDTAMYYCARFYYGNSFAYWGQGTLVTVSA
# VL: DIVMTQSPSSLTVTAGEKVTLSCKSSQSLLNSGNQKNYLTWYQQKPGQPPKMLIYWASTRESGVPDRFTGSGSGTDFTLTISSVQAEDLAVYYCQNAYTYPLTFGAGTRLELK
# B11: 414A5F7 (antibody, V domains shown)
# VH: DVQLVESGGGLVQPGGSRKLSCAASGFTFSSFGMHWVRQAPEKGLEWVAYISSGSSPIYYADTVKGRFTISRDNPKNTLFLQMTSLRSEDTAMYFCARIYYGNSFAYWGQGTLVTVSA
# VL: DIVMTQSPSSLTVTAGEKVAMSCKSSQTLLNSGNQKNYLTWYQQKPGQPPKLLLYWASTRESGVPDRFTGSGSGTDFTLTISSVQAEDLAVYYCQNAYYYPLTFGSGTKLELK
# B12: 418G6A5 (antibody, V domains shown)
# VH: DVQLVESGGGLVQPGGSRKLSCVASGFTFSSFGMHWVRQAPEKGLEWVAYISSGSSPMYYADTVKGRFTISRDNPKNTLFLQMTSLRSEDTAMYFCARIYYGNSFAYWGQGTLVTVSA
# VL: DIVMTQSPSSLTVTAGEKVTMSCKSSQSLLNSGNQKNYLTWYQQKPGQPPKLLIYWASTRESGVPDRFTGSGSGTDFTLTISSVQAEDLAVYYCQNAYSYPLTFGAGTKLELK
# B13: 412B6E4 (antibody, V domains shown)
# VH: DVQLVESGGGLVQPGGSRKLSCAASGFTFSSFGVHWVRQAPEKGLEWVAYISSGSSTIYYAHSVKGRFTISRDNPKNTLFLQMTSLGSEDTATYYCARFYYGNSFAYWGQGTLVTVSA
# VL: DIVMTQSPSSLTVTAGEKVTMSCKSSQSLLNSGNQKNYLTWYQQKPGQPPKMLIYWASTRESGVPDRFTGSGSGTDFTLTISSVQAEDLAVYYCQNAYTYPLTFGAGTRLELK
# B14: 201F4H6 (antibody, V domains shown)
# VH: QVQLKESGPGLVAPSQSLSITCTVSGFSLTSYGVSWVRQPPGKGLECLGVIWAGGNTNYNSALMSRLSISKDKSKSQVFLKMNSLQTDDTAMYYCARVYYGNAMDYWGQGTSVTVSS
# VL: DIVMTQSPSSLTVTAGEKVTMSCKSSQSLLNSGNQKSYLTWYQQRPGQPPKLLIYWASTRESGVPDRFTGSGSGTDFTLTISSVQAEDLAVYFCQNVYFFPFTFGSGTKLETK
# B15: 411A6E3 (antibody, V domains shown)
# VH: DVQLVESGGGLVQPGGSRKLSCAASGFTFSDFGMHWIRQTPEKGLEWVAYISSGSRPIYYADTVKGRFTISRDNPKNTLFLQMTSLRSEDTAMYFCVRFYFGNSFDHWGQGTLVTVSA
# VL: DIVMTQSPSFLTVTAGEKVTMTCRSSQNLLNSGNLKNYLTWYQQKPGQPPKLLISWASTRESGVPDRFTGSGSGTDFTLTISSVQPEDLALYYCQNAYSFPLTFGAGTKLELK
# B16: 413C12F8 (antibody, V domains shown)
# VH: DVQLVESGGGLVQPGGSRKLSCAASGFTFSGFGVHWIRQTPEKGLEWVAYIGSGSRPIYYADTVKGRFTISRDNPKNTLFLQMTSLRSEDTAMYFCARFYYGNSFDHWGQGTLVTVSA
# VL: DIVMTQSPSFLTVTAGEKVTMNCRSSQSLLNSGNQKNYLTWYQQRPGQPPKLLIYWASTRESGVPDRFTGSGSGTDFTLTISSVQAEDLALYYCQNAYSFPLTFGAGTKLELK
# B17: 419A10D4 (antibody, V domains shown)
# VH: DVQLVESGGGLVQPGGSRKLSCAASGFTFSGFGMHWIRQTPEKGLEWVAYISSGSRPIYYADTVKGRFTISRDNPKNTLFLQMTSLRSEDTAMYFCARFYYGNSFDHWGQGTLVTVSA
# VL: DIVMTQSPSFLTVTAGEKVTMSCKSSQSLLNSGNQRNYLTWYQQKPGQPPKLLIYWASTRESGVPDRFTGSGSGTDFTLTVSSVQAEDLALYYCQNAYSFPLTFGAGTKLELK
# B18: 419A5F3 (antibody, V domains shown)
# VH: DVQLVESGGGLVQPGGSRKLSCAASGFTFSGFGMHWIRQTPEKGLEWVAYISSDSRPIYYADTVKGRFTISRDNPKNTLFLQMTSLRSEDTAMYFCGRFYYGNSFDHWGQGTLVTVSA
# VL: DIVMTQSPSFLTVTAGEKVTLSCRSSQSLLNSGNQRNYLTWYQQKPGQPPKLLIYWASTRESGVPDRFTGSGSGTDFTLTISSVQAEDRALYYCQNAYSFPLTFGTGTKLELR
# B19: 411B4G4 (antibody, V domains shown)
# VH: DVQLVESGGGLVQPGGSRKLSCAASGFTFSGFGLHWIRQTPEKGLEWVAYISSGSRPIYYADTVKGRFTISRDNPKNTLFLQMTSLRSEDTAMYFCARFYYGNSFDHWGQGTLVTVSA
# VL: DIVMTQSPSFLTVTAGEKVTMSCRSSQSLLNSGNQRNYLTWYQQKPGQPPKLLIYWASTRESGVPDRFTGSGSGTDFTLTISSVQAEDLALYYCQNAYSFPLTFGAGTKLELK
# B20: 411G3E10 (antibody, V domains shown)
# VH: DVQLVESGGGLVQPGGSRKLSCAASGFTFSGFGMHWIRQTPEKGLEWVAYISSGSRPIYYADTVKGRFTISRDNPKNTLFLQMTSLRSEDTAMYFCARFYYGNSFDHWGQGTLVTVSA
# VL: DIVMTQSPSFLTVTAGEKVTMNCRSSQSLLNSGNQKNYLTWYQQKPGQPPKLLIYWASTRESGVPDRFTGSGSGTDFTLTISSVQAEDLALYYCQNAYSFPLTFGAGTKLELK
# Target: human Claudin18.2 (human)
# Assay: cell-based or functional assay
binder,measurement,value
B1,CDC % Relative activity,440%
same,CDC EC50,0.392 µg/mL
B2,CDC % Relative activity,755%
same,CDC EC50,0.346 µg/mL
B3,CDC % Relative activity,10.4%
same,CDC EC50,26.3 µg/mL
B4,CDC % Relative activity,678%
same,CDC EC50,0.402 µg/mL
B5,CDC % Relative activity,349%
same,CDC EC50,0.494 µg/mL
B6,CDC % Relative activity,28.5%
same,CDC EC50,9.56 µg/mL
B7,CDC % Relative activity,236%
same,CDC EC50,0.73 µg/mL
B8,CDC % Relative activity,600%
same,CDC EC50,0.319 µg/mL
B9,CDC % Relative activity,30.8%
same,CDC EC50,5.6 µg/mL
B10,CDC % Relative activity,220%
same,CDC EC50,0.784 µg/mL
B11,CDC % Relative activity,594%
same,CDC EC50,0.458 µg/mL
B12,CDC % Relative activity,207%
same,CDC EC50,0.83 µg/mL
B13,CDC % Relative activity,577%
same,CDC EC50,0.472 µg/mL
B14,CDC % Relative activity,135%
same,CDC EC50,1.42 µg/mL
B15,CDC % Relative activity,109%
same,CDC EC50,2.5 µg/mL
B16,CDC % Relative activity,70.9%
same,CDC EC50,3.84 µg/mL
B17,CDC % Relative activity,91.5%
same,CDC EC50,1.88 µg/mL
B18,CDC % Relative activity,61.7%
same,CDC EC50,2.79 µg/mL
B19,CDC % Relative activity,68.3%
same,CDC EC50,3.98 µg/mL
B20,CDC % Relative activity,82.2%
same,CDC EC50,3.31 µg/mL
